Drawing on patent publication US20130142802A1, this text covers % positive staining of the cell population and %Gated (marker M1) for one substance.

In assay [1] the target is native FGFR2-IIIc on rat prostate cancer cell line AT3B-1 (rat) (UniProt F1LNW0). The assay can be described thus: flow cytometry on AT3B-1 cells; no-primary control 11%.
Assay [2] has the same target. The assay can be described thus: flow cytometry on rat prostate cancer cell line AT3B-1; marker M1 9-7844, 1840 of 15000 events; the panel without primary antibody also prints 12.27. In general terms: Flow cytometry measures light scatter and fluorescence of single cells or particles in a stream.

human IgG (negative control) (antibody) gave a % positive staining of the cell population in assay [1] of 12%. This substance also yielded a %Gated (marker M1) in assay [2] of 12.3%.
